Reference: PMC11654684, “The nucleocapsid architecture and structural atlas of the prototype baculovirus define the hallmarks of a new viral realm” (Science Advances, 2024)

Molecular target: the molecule itself
Assay: cryo-EM structure; intact AcMNPV budded virions purified from Sf9 culture, TE buffer (50 mM Tris, 0.5 mM EDTA, pH 8.7); helical reconstruction (C14, 4.2 Å) and localized reconstruction of four neighbouring VP39 dimers of the tube (3.1 Å)

B1: major capsid protein (MCP) (natural protein)
chain: MALVPVGMAPRQMRVNRCIFASIVSFDACITYKSPCSPDAYHDDGWFICNNHLIKRFKMSKMVLPIFDEDDNQFKMTIARHLVGNKERGIKRILIPSATNYQDVFNLNSMMQAEQLIFHLIYNNENAVNTICDNLKYTEGFTSNTQRVIHSVYATTKSILDTTNPNTFCSRVSRDELRFFDVTNARALRGGAGDQLFNNYSGFLQNLIRRAVAPEYLQIDTEELRFRNCATCIIDETGLVASVPDGPELYNPIRSSDIMRSQPNRLQIRNVLKFEGDTRELDRTLSGYEEYPTYVPLFLGYQIINSENNFLRNDFIPRANPNATLGGGAVAGPAPGVAGEAGGGIAV
notes: Major capsid protein VP39 (AC89) of Autographa californica multiple nucleopolyhedrovirus, as it stands in the budded virion; the model comprises Val15 to Asn320 (loop Asp27 to Ser34 built only in some subunits); the last 30 residues are not visible; Native protein in the nucleocapsid of intact budded virions; contains a CCCH zinc finger; also called VP39; AC89; source: AcMNPV budded virions …
stoichiometry N: 2
